Data taken from patent EP4631959A2, “NOVEL MINIGASTRIN-DERIVED CHOLECYSTOKININ 2 RECEPTOR BINDING MOLECULES FOR IMAGING AND TARGETED RADIOTHERAPY” (priority 2022, dated 2024).
Starred links: 1 amine or outer side, 2 acyl side, 3 side chain; linkers in the order of their positions; H or OH if unused. Non-standard residues stand in square brackets, D forms with d. Residues, ends and D or L forms follow the SMILES beside them. *: point of attachment. X3 = CC(C)(C)[Si](F)(c1ccc(C(=O)NC[C@@H](NC(=O)CN2CCN(CC(=O)O)CCN(CC(=O)O)CCN(CC(=O)O)CC2)C(=O)*)cc1)C(C)(C)C; DOTA = O=C(O)CN1CCN(CC(=O)O)CCN(CC(=O)*)CCN(CC(=O)O)CC1; d(γGlu) = O=C(O)[C@@H](CCC(=O)[*:2])N[*:1]; 1Nal = N[C@@H](Cc1cccc2ccccc12)C(=O)O; PEG6 = NCCOCCOCCOCCOCCOCCOCCC(=O)O; PEG5 = NCCOCCOCCOCCOCCOCCC(=O)O; NMeNle = CCCC[C@H](NC)C(=O)O; dOrn = NCCC[C@@H](N)C(=O)O; PEG3 = NCCOCCOCCOCCC(=O)O; Nle = CCCC[C@H](N)C(=O)O; AEEA = NCCOCCOCC(=O)O

Assays:
[1] = n-Octanol-PBS distribution coefficient (logD7.4); assay type: physicochemical; details: pH = 7.4, ^177Lu-labeled
Description: Approximately 1 MBq of the labeled tracer was dissolved in 1 mL of a 1/1 mixture (v/v) of phosphate buffered saline (PBS, pH = 7.4) and n-octanol in an Eppendorf tube (1.5 mL). After vigorous mixing of the suspension for 3 min at rt, the vial was centrifuged at 9,000 rpm for 5 min (Biofuge 15, Heraeus Sepatech, Osterode, Germany) and 200 µL aliquots of both layers were measured in a γ-counter. The experiment was repeated at least five times.

CCK-2R = molecular target: T1, CCK-2R (Rattus norvegicus, UniProt P30553); assay: Determination of IC50: CCK-2R affinity on AR4-2J cells, competition with [^177Lu]Lu-DOTA-PP-F11N; assay type: binding; details: AR4-2J cells; ^natLu-labeled; read-out: IC50 [nM] (n = 3), ^natLu-labeled
T1 construct: The CCK-2R expressing rat pancreatic tumor cells AR4-2J; host or cells: AR4-2J rat pancreatic tumor cells
T1 sequence (P30553 1-452): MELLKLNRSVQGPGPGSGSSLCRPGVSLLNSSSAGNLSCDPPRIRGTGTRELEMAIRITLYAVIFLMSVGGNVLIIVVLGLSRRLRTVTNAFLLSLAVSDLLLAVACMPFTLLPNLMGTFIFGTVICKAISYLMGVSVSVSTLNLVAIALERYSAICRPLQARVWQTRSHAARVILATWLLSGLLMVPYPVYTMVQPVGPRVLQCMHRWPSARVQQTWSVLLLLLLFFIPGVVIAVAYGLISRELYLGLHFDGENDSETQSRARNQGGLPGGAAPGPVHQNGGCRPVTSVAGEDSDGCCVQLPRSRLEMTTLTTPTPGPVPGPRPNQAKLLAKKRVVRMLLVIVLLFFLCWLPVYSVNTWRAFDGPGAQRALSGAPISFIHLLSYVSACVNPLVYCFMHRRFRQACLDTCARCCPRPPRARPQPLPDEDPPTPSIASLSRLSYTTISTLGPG
Description: AR4-2J cells were harvested 24 ± 2 h before the experiment and seeded in 24-well plates (2.0 × 10^5 cells in 1 mL/well). After removal of the nutrient medium (RPMI 1640, 5 mM L-Gln, 5 mL non-essential amino acids (100×), 10% FCS), the cells were washed once with 500 µL PBS. Thereafter, 200 µL nutrient medium (5% BSA, v/v) were added. Next, 25 µL per well of solutions containing either nutrient medium (5% BSA, v/v) as control or the respective compound in increasing concentration (10^-10 - 10^-4 M), were added with subsequent addition of 25 µL [^177Lu]Lu-DOTA-PP-F11N (0.3 pmol/well).
All experiments were performed in triplicate for each concentration. After 3 h incubation at 37 °C, the experiment was terminated by removal of the medium and consecutive rinsing with 300 µL PBS. The media of both steps were combined in one fraction and represent the amount of free radiolabeled reference. Afterwards, the cells were lysed with 300 µL of 1 M NaOH for at least 15 min and united with the 300 µL NaOH of the following washing step. Quantification of bound and free radiolabeled reference was accomplished in a γ-counter. IC50 determination for each conjugate was repeated twice.

SMILES | IC50 (CCK-2R) [nM] | logD7.4 (n ≥ 5), ^177Lu-labeled [1] | logD7.4 (n ≥ 5), ^177Lu-labeled ([1]; listed as [^177Lu]Lu-DOTA-CCK-63) | logD7.4 (n ≥ 5), ^177Lu-labeled ([1]; listed as [^177Lu]Lu-DOTA-CCK-77)
CCCC[C@@H](C(=O)N[C@@H](CC(=O)O)C(=O)N[C@@H](Cc1cccc2ccccc12)C(N)=O)N(C)C(=O)[C@H](Cc1c[nH]c2ccccc12)NC(=O)CNC(=O)[C@H](Cc1ccc(O)cc1)NC(=O)CNC(=O)CNC(=O)CN1CCN(CC(=O)O)CCN(CC(=O)O)CCN(CC(=O)O)CC1 [DOTA-CCK-56, DOTA-(Gly)2-Tyr-Gly-Trp-(N-Me)NIe-Asp-1-Nal-NH2] ({DOTA}-GGYGW[NMeNle]D[1Nal]-NH2) | 4.9 ± 0.8 | −1.38 ± 0.07 | – | –
CCCC[C@@H](C(=O)N[C@@H](CC(=O)O)C(=O)N[C@@H](Cc1cccc2ccccc12)C(N)=O)N(C)C(=O)[C@H](Cc1c[nH]c2ccccc12)NC(=O)CNC(=O)[C@H](Cc1ccc(O)cc1)NC(=O)[C@H](C)NC(=O)CNC(=O)CN1CCN(CC(=O)O)CCN(CC(=O)O)CCN(CC(=O)O)CC1 [DOTA-CCK-57, DOTA-Gly-Ala-Tyr-Gly-Trp-(N-Me)Nle-Asp-1-Nal-NH2] ({DOTA}-GAYGW[NMeNle]D[1Nal]-NH2) | 5.6 ± 0.5 | −1.26 ± 0.08 | – | –
CCCC[C@@H](C(=O)N[C@@H](CC(=O)O)C(=O)N[C@@H](Cc1cccc2ccccc12)C(N)=O)N(C)C(=O)[C@H](Cc1c[nH]c2ccccc12)NC(=O)COCCOCCNC(=O)CC[C@@H](NC(=O)CN1CCN(CC(=O)O)CCN(CC(=O)O)CCN(CC(=O)O)CC1)C(=O)O [DOTA-CCK-77, DOTA-γ-glu-PEG-Trp-(N-Me)Nle-Asp-1-Nal-NH2] ({DOTA-d(γGlu)-AEEA}-W[NMeNle]D[1Nal]-NH2) | – | −3.09 ± 0.06 | – | < -3
CCCC[C@H](NC(=O)[C@H](Cc1c[nH]c2ccccc12)NC(=O)CNC(=O)[C@H](Cc1ccc(O)cc1)NC(=O)[C@H](C)NC(=O)CC[C@@H](NC(=O)CC[C@@H](NC(=O)CC[C@@H](NC(=O)CC[C@@H](NC(=O)CC[C@@H](NC(=O)[C@H](N)CCCNC(=O)[C@@H](CNC(=O)c1ccc([Si](F)(C(C)(C)C)C(C)(C)C)cc1)NC(=O)CN1CCN(CC(=O)O)CCN(CC(=O)O)CCN(CC(=O)O)CC1)C(=O)O)C(=O)O)C(=O)O)C(=O)O)C(=O)O)C(=O)N[C@@H](CC(=O)O)C(=O)N[C@@H](Cc1ccccc1)C(N)=O [DOTA-MG-SiFA-27, DOTA-dap(SiFA)-γ-orn-(γ-glu)5-F11N] (H-[dOrn](X3)[d(γGlu)][d(γGlu)][d(γGlu)][d(γGlu)][d(γGlu)]AYGW[Nle]DF-NH2) | – | −1.90 ± 0.10 | – | –
CCCC[C@H](NC(=O)[C@H](Cc1c[nH]c2ccccc12)NC(=O)CNC(=O)[C@H](Cc1ccc(O)cc1)NC(=O)[C@H](C)NC(=O)CC[C@@H](NC(=O)CC[C@@H](NC(=O)CC[C@@H](NC(=O)CC[C@@H](NC(=O)CC[C@@H](NC(=O)CC[C@@H](NC(=O)CC[C@@H](NC(=O)[C@H](N)CCCNC(=O)[C@@H](CNC(=O)c1ccc([Si](F)(C(C)(C)C)C(C)(C)C)cc1)NC(=O)CN1CCN(CC(=O)O)CCN(CC(=O)O)CCN(CC(=O)O)CC1)C(=O)O)C(=O)O)C(=O)O)C(=O)O)C(=O)O)C(=O)O)C(=O)O)C(=O)N[C@@H](CC(=O)O)C(=O)N[C@@H](Cc1ccccc1)C(N)=O [DOTA-MG-SiFA-28, DOTA-dap(SiFA)-γ-orn-(γ-glu)7-F11N] | – | −1.81 ± 0.10 | – | –
CCCC[C@H](NC(=O)[C@H](Cc1c[nH]c2ccccc12)NC(=O)CNC(=O)[C@H](Cc1ccc(O)cc1)NC(=O)[C@H](C)NC(=O)CC[C@@H](NC(=O)CC[C@@H](NC(=O)CC[C@@H](NC(=O)CC[C@@H](NC(=O)CC[C@@H](NC(=O)CC[C@@H](NC(=O)CC[C@@H](NC(=O)[C@H](N)CCCCNC(=O)[C@@H](CNC(=O)c1ccc([Si](F)(C(C)(C)C)C(C)(C)C)cc1)NC(=O)CN1CCN(CC(=O)O)CCN(CC(=O)O)CCN(CC(=O)O)CC1)C(=O)O)C(=O)O)C(=O)O)C(=O)O)C(=O)O)C(=O)O)C(=O)O)C(=O)N[C@@H](CC(=O)O)C(=O)N[C@@H](Cc1ccccc1)C(N)=O [DOTA-MG-SiFA-30, DOTA-dap(SiFA)-γ-lys-(γ-glu)7-F11N] | – | −1.74 ± 0.03 | – | –
CCCC[C@H](NC(=O)[C@H](Cc1c[nH]c2ccccc12)NC(=O)CNC(=O)[C@H](Cc1ccc(O)cc1)NC(=O)[C@H](C)NC(=O)CC[C@@H](NC(=O)CC[C@@H](NC(=O)CC[C@@H](NC(=O)CC[C@@H](NC(=O)CC[C@@H](NC(=O)CC[C@@H](NC(=O)CC[C@@H](NC(=O)[C@H](N)CCCCNC(=O)[C@@H](CNC(=O)c1ccc([Si](F)(C(C)(C)C)C(C)(C)C)cc1)NC(=O)[C@H](N)CCCCNC(=O)CN1CCN(CC(=O)O)CCN(CC(=O)O)CCN(CC(=O)O)CC1)C(=O)O)C(=O)O)C(=O)O)C(=O)O)C(=O)O)C(=O)O)C(=O)O)C(=O)N[C@@H](CC(=O)O)C(=O)N[C@@H](Cc1ccccc1)C(N)=O [DOTA-MG-SiFA-31, DOTA-γ-lys-dap(SiFA)-γ-lys-(γ-glu)7-F11N] | – | −1.88 ± 0.10 | – | –

The next lines start with results.

IC50 (CCK-2R) [nM] | SMILES | logD7.4 (n ≥ 5), ^177Lu-labeled [1] | logD7.4 (n ≥ 5), ^177Lu-labeled ([1]; listed as [^177Lu]Lu-DOTA-CCK-63) | logD7.4 (n ≥ 5), ^177Lu-labeled ([1]; listed as [^177Lu]Lu-DOTA-CCK-77)
4.2 ± 0.5 | CCCC[C@@H](C(=O)N[C@@H](CC(=O)O)C(=O)N[C@@H](Cc1cccc2ccccc12)C(N)=O)N(C)C(=O)[C@H](Cc1c[nH]c2ccccc12)NC(=O)CNC(=O)[C@H](Cc1ccc(O)cc1)NC(=O)CNC(=O)CC[C@@H](NC(=O)CN1CCN(CC(=O)O)CCN(CC(=O)O)CCN(CC(=O)O)CC1)C(=O)O [DOTA-CCK-59, DOTA-γ-glu-Gly-Tyr-Gly-Trp-(N-Me)Nle-Asp-1-Nal-NH2] ({DOTA-d(γGlu)}-GYGW[NMeNle]D[1Nal]-NH2) | −2.63 ± 0.05 | – | –
7.9 ± 0.43 | CCCC[C@@H](C(=O)N[C@@H](CC(=O)O)C(=O)N[C@@H](Cc1cccc2ccccc12)C(N)=O)N(C)C(=O)[C@H](Cc1c[nH]c2ccccc12)NC(=O)CNC(=O)CNC(=O)[C@H](C)NC(=O)CC[C@@H](NC(=O)CN1CCN(CC(=O)O)CCN(CC(=O)O)CCN(CC(=O)O)CC1)C(=O)O [DOTA-CCK-60, DOTA-γ-glu-Ala-(Gly)2-Trp-(N-Me)Nle-Asp-1-Nal-NH2] ({DOTA-d(γGlu)}-AGGW[NMeNle]D[1Nal]-NH2) | −2.56 ± 0.09 | – | –
8.2 ± 1.3 | CCCC[C@@H](C(=O)N[C@@H](CC(=O)O)C(=O)N[C@@H](Cc1cccc2ccccc12)C(N)=O)N(C)C(=O)[C@H](Cc1c[nH]c2ccccc12)NC(=O)CNC(=O)CNC(=O)CNC(=O)CC[C@@H](NC(=O)CN1CCN(CC(=O)O)CCN(CC(=O)O)CCN(CC(=O)O)CC1)C(=O)O [DOTA-CCK-62, DOTA-γ-glu-(Gly)3-Trp-(N-Me)Nle-Asp-1-Nal-NH2] ({DOTA-d(γGlu)}-GGGW[NMeNle]D[1Nal]-NH2) | −2.66 ± 0.06 | – | –
4.8 ± 1.1 | CCCC[C@@H](C(=O)N[C@@H](CC(=O)O)C(=O)N[C@@H](Cc1cccc2ccccc12)C(N)=O)N(C)C(=O)[C@H](Cc1c[nH]c2ccccc12)NC(=O)CCOCCOCCOCCNC(=O)CC[C@@H](NC(=O)CN1CCN(CC(=O)O)CCN(CC(=O)O)CCN(CC(=O)O)CC1)C(=O)O [DOTA-CCK-63, DOTA-γ-glu-(PEG)2-Trp-(N-Me)Nle-Asp-1-Nal-NH2] ({DOTA-d(γGlu)-PEG3}-W[NMeNle]D[1Nal]-NH2) | −3.03 ± 0.09 | < -3 | –
6.7 ± 0.8 | CCCC[C@@H](C(=O)N[C@@H](CC(=O)O)C(=O)N[C@@H](Cc1cccc2ccccc12)C(N)=O)N(C)C(=O)[C@H](Cc1c[nH]c2ccccc12)NC(=O)CCOCCOCCOCCOCCOCCNC(=O)CC[C@@H](NC(=O)CN1CCN(CC(=O)O)CCN(CC(=O)O)CCN(CC(=O)O)CC1)C(=O)O [DOTA-CCK-78, DOTA-γ-glu-(PEG)4-Trp-(N-Me)Nle-Asp-1-Nal-NH2] ({DOTA-d(γGlu)-PEG5}-W[NMeNle]D[1Nal]-NH2) | −2.61 ± 0.06 | – | –
7 ± 0.6 | CCCC[C@@H](C(=O)N[C@@H](CC(=O)O)C(=O)N[C@@H](Cc1cccc2ccccc12)C(N)=O)N(C)C(=O)[C@H](Cc1c[nH]c2ccccc12)NC(=O)CCOCCOCCOCCOCCOCCOCCNC(=O)CC[C@@H](NC(=O)CN1CCN(CC(=O)O)CCN(CC(=O)O)CCN(CC(=O)O)CC1)C(=O)O [DOTA-CCK-79, DOTA-γ-glu-(PEG)5-Trp-(N-Me)Nle-Asp-1-Nal-NH2] ({DOTA-d(γGlu)-PEG6}-W[NMeNle]D[1Nal]-NH2) | −2.59 ± 0.05 | – | –
